The results in this text go back to article PMC5843355, “Evaluation of the Trypanosoma brucei 6-oxopurine salvage pathway as a potential target for drug discovery” (PLoS Neglected Tropical Diseases, 2018).

The term Km denotes the substrate concentration at which the rate is half of its maximum. Usually kcat stands for the maximal rate divided by the concentration of active sites. What is called kcat/Km is the turnover number divided by the Michaelis constant.

Changes are numbered by the printed parent chain. “And” between values parts separate entries of the source, which are not always exact repeats. Identical values can stand only once.

Substrate in data set [1]: Nc1nc2nc[nH]c2c(=O)[nH]1
Put plainly: Steady-state kinetic constants of 6-oxopurine bases for HGPRT-I. The format is biochemical, Trypanosoma brucei. As to conditions: other: HGPRT-I, PRib-PP 1 mM, pH 8.4, 25°C. The procedure: The concentration of enzyme in the assay (varied from 75–200 μg/ml for the two enzymes) and the concentration of PRib-PP was kept at 1 mM. The reaction was carried out using a 1.0 cm path length with a UV Visible spectrometer 1601 (Shimadzu) in the reaction buffer (0.1 M Tris, pH 8.4; 0.11 M MgCl2; at 25°C).

Substrate in data set [2]: O=c1[nH]cnc2nc[nH]c12
The data set is described as follows: purified protein, by the assay type. Particulars: PRib-PP 1 mM, pH 8.4, 25°C.

Substrate in data set [3]: Nc1nc2nc[nH]c2c(=O)[nH]1
The data set is described as follows: purified protein, by the assay type. Particulars: PRib-PP 1 mM, pH 8.4, 25°C.

Substrate in data set [4]: O=c1[nH]c(=O)c2[nH]cnc2[nH]1
Put plainly: purified protein, by the assay type. Particulars: other: HGXPRT, PRib-PP 1 mM, pH 8.4, 25°C.

B1: HGPRT-I (Trypanosoma brucei brucei) (protein)
chain: EPACKYDFATSVLFTEAELHTRMRGVAQRIADDYSNCNLKPLENPLVIVSVLKGSFVFTADMVRILGDFGVPTRVEFLRASSYGHDTKSCGRVDVKADGLCDIRGKHVLVLEDILDTALTLREVVDSLKKSEPASIKTLVAIDKPGGRKIPFTAEYVVADVPNVFVVGYGLDYDQSYREVRDVVILKPSVYETWGKELERRKAAGEAKR
notes: 6x His-tag (N); AcTEV cleavage site (N); made in house; host or cells: E. coli One Shot BL21(DE3)
For B1, in data set [1], the Michaelis constant (Km) is 16 µM and 15.9 ± 4.8 µM; the catalytic constant (kcat) worked out at 0.38 s⁻¹; the kcat/Km stood at 20000 M⁻¹ s⁻¹. The Km in data set [2] (other: HGPRT-I) is 13.7 ± 2.9 µM.

B2: HGPRT-II (Trypanosoma brucei brucei TREU927) (protein)
chain: B1 chain with I48V, K53R, G205V, E206K, R209L
As for B2, the Michaelis-Menten constant (Km) in data set [3] (other: HGPRT-II) was 7.1 ± 1.8 µM. Besides, in data set [2] (other: HGPRT-II), the Km stood at 4.2 ± 0.9 µM, the kcat amounted to 0.03 s⁻¹ and the kcat/Km is 7000 M⁻¹ s⁻¹.

B3: HGXPRT (Trypanosoma brucei brucei TREU927) (protein)
chain: HSGHPLKPNFVGRDADGNVTVDGRSYPMAESVVATESTIHRSMKEMAQTLANAYKTLKHRDTHNKGNSALAPITDENPLIIISVLKGSYIFTADMVRYLGDCGLPNVVDFIRITSYRGTTKSSGTVQVLDNLRFTELTGKHVLIMEDIADTGRTMKLLVEKIRREYRPASLKVCVLVDKPGGRVVDFKPEFVCLTAPTRYVVGYGFEVNDRYRNYRHVFVLKPEYAKRYPSKL
For B3, the values for the Km in data set [4], in data set [3] (other: HGXPRT) and in data set [2] (other: HGXPRT) were 31.9 ± 7.5 µM, 32 ± 4.8 µM and 30.6 ± 7.8 µM, respectively. In addition, the catalytic constant (kcat) in data set [4] was 3.66 s⁻¹; in data set [2] (other: HGXPRT), 2.4 s⁻¹. For the same protein, the specificity constant (kcat/Km) in data set [4] was found to be 110000 M⁻¹ s⁻¹; in data set [2] (other: HGXPRT) it was 80000 M⁻¹ s⁻¹.
